In patent publication US9522945B2 (OPKO Biologics Ltd., priority 2012, dated 2016):
Where two headings read alike, the source gives them in different places.

B1: CTP-OXM-CTP-CTP: oxyntomodulin with one CTP on the amino terminus and two on the carboxy terminus, SEQ ID NO: 15 (protein)
chain: MATGSRTSLLLAFGLLCLPWLQEGSASSSSKAPPPSLPSPSRLPGPSDTPILPQHSQGTFTSDYSKYLDSRRAQDFVQWLMNTKRNRNNIASSSSKAPPPSLPSPSRLPGPSDTPILPQSSSSKAPPPSLPSPSRLPGPSDTPILPQ
modifications: CTP-OXM-CTP-CTP
B2: CTP-OXM-CTP: oxyntomodulin with one CTP on the amino terminus and one on the carboxy terminus, SEQ ID NO: 9 (protein)
chain: MATGSRTSLLLAFGLLCLPWLQEGSASSSSKAPPPSLPSPSRLPGPSDTPILPQHSQGTFTSDYSKYLDSRRAQDFVQWLMNTKRNRNNIASSSSKAPPPSLPSPSRLPGPSDTPILPQ
modifications: CTP-OXM-CTP
B3: OXM-CTP-CTP-CTP-CTP: oxyntomodulin with four CTPs on the carboxy terminus, SEQ ID NO: 27 (protein)
chain: MATGSRTSLLLAFGLLCLPWLQEGSAHSQGTFTSDYSKYLDSRRAQDFVQWLMNTKRNRNNIASSSSKAPPPSLPSPSRLPGPSDTPILPQSSSSKAPPPSLPSPSRLPGPSDTPILPQSSSSKAPPPSLPSPSRLPGPSDTPILPQSSSSKAPPPSLPSPSRLPGPSDTPILPQ
modifications: OXM-CTPx4
B4: OXM-CTP-CTP-CTP-CTP-CTP: oxyntomodulin with five CTPs on the carboxy terminus, SEQ ID NO: 29 (protein)
chain: MATGSRTSLLLAFGLLCLPWLQEGSAHSQGTFTSDYSKYLDSRRAQDFVQWLMNTKRNRNNIASSSSKAPPPSLPSPSRLPGPSDTPILPQSSSSKAPPPSLPSPSRLPGPSDTPILPQSSSSKAPPPSLPSPSRLPGPSDTPILPQSSSSKAPPPSLPSPSRLPGPSDTPILPQSSSSKAPPPSLPSPSRLPGPSDTPILPQ
modifications: OXM-CTPx5
B5: OXM-CTP-CTP: oxyntomodulin with two CTPs in tandem on the carboxy terminus, SEQ ID NO: 21, expressed in CHO cells (protein)
chain: LEDMATGSRTSLLLAFGLLCLPWLQEGSAHSQGTFTSDYSKYLDSRRAQDFVQWLMNTKRNRNNIASSSSKAPPPSLPSPSRLPGPSDTPILPQSSSSKAPPPSLPSPSRLPGPSDTPILPQ
modifications: OXM-CTP-CTP
B6: OXM-CTP-CTP-CTP: oxyntomodulin with three CTPs on the carboxy terminus, SEQ ID NO: 25 (protein)
chain: MATGSRTSLLLAFGLLCLPWLQEGSAHSQGTFTSDYSKYLDSRRAQDFVQWLMNTKRNRNNIASSSSKAPPPSLPSPSRLPGPSDTPILPQSSSSKAPPPSLPSPSRLPGPSDTPILPQSSSSKAPPPSLPSPSRLPGPSDTPILPQ
modifications: OXM-CTPx3
B7: CTP-CTP-OXM: oxyntomodulin with two CTPs on the amino terminus, SEQ ID NO: 23 (protein)
chain: MATGSRTSLLLAFGLLCLPWLQEGSASSSSKAPPPSLPSPSRLPGPSDTPILPQSSSSKAPPPSLPSPSRLPGPSDTPILPQHSQGTFTSDYSKYLDSRRAQDFVQWLMNTKRNRNNIARSGCGRGTLGLMGLPFTARFP
modifications: CTPx2-OXM

What was measured:
[1] = parameters: species or system rats; conditions: rat, in vivo
Excerpt: Cohorts of 3 animals per group were bled at alternating time points. […] The study was divided into 3 sequential experiments, Experiment #1 (Groups 1-4), Experiment #2 (Groups 5-9) and Experiment #3 (Groups 10-13).

C57BL/6 mice [2] = experiment: IP glucose tolerance test (IPGTT); type: in vivo; conditions: for effect on glucose levels / glucose tolerance, in words: Experiment 1, 100 nmol/kg IP 15 min prior to glucose IP (1.5 g/kg)
Description: Overnight-fasted mice were measured for glucose (pre-dose glucose). Immediately after, they were IP injected with one of the test articles. […] Blood glucose level were measured by tail vein sampling using a handheld glucometer.

C57BL/6 mice [3] = experiment: Acute food intake study; type: in vivo
Description: At least one week before injection, mice were weighed and were transferred to a mini cage for acclimatization, (one mouse per cage). During the acclimatization period, they were handled daily and received two injections of vehicle to minimize stress during the study period. The day before the experiment, the mice were fasted. […] After injection, the mice were returned to their home cages (1 mouse per cage), and provided with a pre-weighed amount of chow. Food intake were measured 0, 1, 2, 4, 6, 8, 21, 32 and 44, 55, 68, 80, 93 and 141 h post injection by weighing the chow.
In this study, the acute effect on food intake was measured.
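Wherever AUC(0-t) is given: blood drawn at alternating time points, with three animals in each cohort.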
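Wherever AUC∞ is given: blood drawn at alternating time points, with three animals in each cohort.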
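Wherever Bioavailability is given: blood drawn at alternating time points, with three animals in each cohort.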
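Wherever bioavailability as calculated from Experiments 1 & 2, change in words is given: blood drawn at alternating time points, with three animals in each cohort.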

Row | Molecule | Bioavailability [1] [%] | bioavailability as calculated from Experiments 1 & 2, change in words [1] | AUC(0-t) ([1]; iv, 230 ug/kg) [ng·h/mL] | AUC∞ ([1]; iv, 230 ug/kg) [ng·h/mL] | CL ([1]; iv, 230 ug/kg) [mL/min/kg] | MRT ([1]; iv, 230 ug/kg) [h] | T½ ([1]; iv, 230 ug/kg) [h] | T½β ([1]; iv, 230 ug/kg) [h] | Vd ([1]; iv, 230 ug/kg) [L/kg] | AUC(0-t) ([1]; sc, 230 ug/kg) [ng·h/mL] | AUC∞ ([1]; sc, 230 ug/kg) [ng·h/mL] | CL ([1]; sc, 230 ug/kg) [mL/min/kg] | Cmax ([1]; sc, 230 ug/kg) [ng/mL] | MRT ([1]; sc, 230 ug/kg) [h] | Tmax ([1]; sc, 230 ug/kg) [h] | T½ ([1]; sc, 230 ug/kg) [h] | Vd ([1]; sc, 230 ug/kg) [L/kg] | pharmacokinetic profile / PK parameters, comparison in words [1] | CL ([1]; sc) [mL/min/kg] | Tmax ([1]; sc) [h] | other results
1 | B1 | 32.43 | increased | 968.2 | 977.4 | 3.623 | 0.80 | 0.28 | 1.61 | 0.5064 | 313.98 | 320.86 | 11.038 | 30.18 | 6.62 | 6.00 | 4.39 | 4.13925 | – | – | – | –
2 | B2 | 24.44 | no significant improvement | 592.7 | 598.0 | 5.922 | 0.81 | 0.25 | 1.57 | 0.8069 | 144.87 | 170.82 | 20.7328 | 31.11 | 4.73 | 1.00 | 3.28 | 5.88775 | – | – | – | effect on glucose levels / glucose tolerance, in words (C57BL/6 mice [2]): increased glucose levels
3 | B3 | – | – | – | – | – | – | – | – | – | – | – | – | – | – | – | – | – | superior in these parameters compared to other variants | 5.923 | 2.0 | glucose tolerance activity when administered 120 min prior to glucose (C57BL/6 mice [2]; Experiment 2, 100 nmol/kg IP 120 min prior to glucose): induced glucose tolerance activity; inhibition of food intake, comparison in words (C57BL/6 mice [3]; single administration, mice): did not last as long as OXM-CTPx5 or OXM-CTPx3; Vd ([1]; sc): 5.3796 L/kg
4 | B4 | – | – | – | – | – | – | – | – | – | – | – | – | – | – | – | – | – | superior in these parameters compared to other variants | 5.77 | 8 | cumulative food inhibition sustained for (C57BL/6 mice [3]; cumulative food intake, mice): at least 141 hrs; time for which food intake was reduced compared to vehicle (C57BL/6 mice [3]; single SC 1700 nmol/kg, male C57BL/6 mice): 5 days; duration of food intake inhibition, percentage of food intake per time interval (C57BL/6 mice [3]; time intervals over the experiment (FIG. 6B), single SC, male C57BL/6 mice): about 80 hours; T½ ([1]; sc): 9.63 h; Vd ([1]; sc): 4.812 L/kg
5 | B5 | – | – | – | – | – | – | – | – | – | 697.00 | 702.10 | 5.045 | 50.90 | 8.20 | 6.00 | 4.76 | 2.0789 | superior PK parameters as compared to the CTP-OXM-CTP-CTP variant | – | – | –
6 | B6 | – | – | – | – | – | – | – | – | – | – | – | – | – | – | – | – | – | – | 8.547 | 2.0 | T½ ([1]; sc): 3.78 h; Vd ([1]; sc): 2.797 L/kg
7 | B7 | 23.36 | no significant improvement | 488.6 | 490.4 | 7.222 | 0.86 | 0.27 | 1.20 | 0.7481 | 114.15 | 129.85 | 27.2758 | 27.77 | 4.10 | 1.00 | 2.74 | 6.45976 | – | – | – | effect on glucose levels / glucose tolerance, in words (C57BL/6 mice [2]): minor impact on glucose tolerance
